Measured values as given in US20120172293A1 (Takeda / Millennium, published 2012).
Non-standard residues stand in square brackets, D forms with d. No end group written: not given here. *: point of attachment. X3 = ((1S)-1-Carboxy-2-hydroxyethyl)carbamoyl, O=C(O)[C@H](CO)NC(=O)*; X2 = (tetrahydro-2H-pyran-4-ylmethyl)carbamoyl, O=C(NCC1CCOCC1)*; X8 = (2-Hydroxy-1-(hydroxymethyl)ethyl)carbamoyl, O=C(NC(CO)CO)*; X7 = (tetrahydro-2H-pyran-4-yl)carbamoyl, O=C(NC1CCOCC1)*; (2-carboxyethyl)carbamoyl = O=C(O)CCNC(=O)*; Tetrahydropyran4carbonyl = O=C(C1CCOCC1)*; 2‑hydroxyethylcarbamoyl = O=C(NCCO)*; tBuAla = CC(C)(C)C[C@H](N)C(=O)O; 4Pal = N[C@@H](Cc1ccncc1)C(=O)O; dHyp = O=C(O)[C@H]1C[C@H](O)CN1; Cha = N[C@@H](CC1CCCCC1)C(=O)O; 4Amb = NCc1ccc(C(=O)O)cc1; Iva = CC[C@](C)(N)C(=O)O; Nva = CCC[C@H](N)C(=O)O; Aib = CC(C)(N)C(=O)O; Carbamoyl = NC(=O)*

T1: human Y2 receptor (human, UniProt P49146 1-381)
T1 construct: whole, on cells; used as membrane fraction of hY2R/CHO cells; also called human NPY2R; hY2R
T1 sequence (looked up): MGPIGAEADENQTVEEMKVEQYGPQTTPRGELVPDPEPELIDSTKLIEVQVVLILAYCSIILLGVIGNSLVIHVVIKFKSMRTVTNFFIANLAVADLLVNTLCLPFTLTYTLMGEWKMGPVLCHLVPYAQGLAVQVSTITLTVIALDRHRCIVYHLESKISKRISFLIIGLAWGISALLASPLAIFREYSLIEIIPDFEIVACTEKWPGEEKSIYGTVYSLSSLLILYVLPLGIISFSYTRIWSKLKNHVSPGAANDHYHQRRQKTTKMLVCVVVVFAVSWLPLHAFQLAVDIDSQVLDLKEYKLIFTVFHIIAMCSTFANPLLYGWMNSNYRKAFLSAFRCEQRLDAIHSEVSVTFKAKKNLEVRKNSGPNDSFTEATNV


How the values were obtained:
human Y2 receptor [1] = target: T1, human Y2 receptor; experiment: RBA: [125I]-PYY displacement, hY2R/CHO membranes
Description: After incubation at room temperature for 60 minutes, the mixture was filtered through the cell harvester FilterMate (PerkinElmer) using UniFilter-96 GF/C treated with polyethylenimine (PEI) solution (20 mM Tris, 0.3% PEI, pH 7.4), and the filter was washed 3 times with a filtering buffer (50 mM Tris, 5 mM MgCl₂, 150 mM NaCl, 0.03% NaN₃, 0.05% CHAPS, pH 7.4). Thereafter, UniFilter-96 GF/C was dried in a mechanical drier for 1 hour, 15 μl of the liquid scintillator MicroScint O (PerkinElmer) was added to each well, and a measurement was taken using TopCount (PerkinElmer). The data obtained were analyzed using Prism to calculate the IC₅₀ value.

human Y2 receptor [2] = target: T1, human Y2 receptor; experiment: cell-based or functional assay
[3] = target: human Y2 receptor (human) (UniProt P49146); experiment: RBA: displacement of [125I]-PYY from hY2R/CHO membranes
[4] = target: human Y2 receptor (human) (UniProt P49146); experiment: cell-based or functional assay

IC50 Ratio (vs PYY(3-36)) (human Y2 receptor [1]) [ratio]	GBA EC50 Ratio (vs PYY(3-36)), [35S]GTPγS (human Y2 receptor [2]) [ratio]	IC50 Ratio (IC50 compound/IC50 PYY(3-36)) [3]	GBA EC50 Ratio ([35S]GTPγS binding) (EC50 compound/EC50 PYY(3-36)) [4]	Binder
92	23	–	–	[4Amb][dR]AYINLITRQRY-NH2 (N-terminus assumed; SMILES CC[C@H](C)[C@H](NC(=O)[C@H](Cc1ccc(O)cc1)NC(=O)[C@H](C)NC(=O)[C@@H](CCCNC(=N)N)NC(=O)c1ccc(CN)cc1)C(=O)N[C@@H](CC(N)=O)C(=O)N[C@@H](CC(C)C)C(=O)N[C@H](C(=O)N[C@H](C(=O)N[C@@H](CCCNC(=N)N)C(=O)N[C@@H](CCC(N)=O)C(=O)N[C@@H](CCCNC(=N)N)C(=O)N[C@@H](Cc1ccc(O)cc1)C(N)=O)[C@@H](C)O)[C@@H](C)CC, also called compound No. 9) [4-Aminomethylbenzoyl-[D-Arg25, Ala26, Ile28,31]-PYY(25-36)]
–	–	3.5	3	X3-S[dP][Iva][4Pal][Cha][Aib]NK[Aib]TRQR[Cha]-NH2 (SMILES CC[C@](C)(NC(=O)[C@H]1CCCN1C(=O)[C@H](CO)NC(=O)N[C@@H](CO)C(=O)O)C(=O)N[C@@H](Cc1ccncc1)C(=O)N[C@@H](CC1CCCCC1)C(=O)NC(C)(C)C(=O)N[C@@H](CC(N)=O)C(=O)N[C@@H](CCCCN)C(=O)NC(C)(C)C(=O)N[C@H](C(=O)N[C@@H](CCCNC(=N)N)C(=O)N[C@@H](CCC(N)=O)C(=O)N[C@@H](CCCNC(=N)N)C(=O)N[C@@H](CC1CCCCC1)C(N)=O)[C@@H](C)O)
–	–	1.7	1.9	X2-S[dP][Iva][4Pal][Cha][Aib]NK[Aib]TRQR[Cha]-NH2 (SMILES CC[C@](C)(NC(=O)[C@H]1CCCN1C(=O)[C@H](CO)NC(=O)NCC1CCOCC1)C(=O)N[C@@H](Cc1ccncc1)C(=O)N[C@@H](CC1CCCCC1)C(=O)NC(C)(C)C(=O)N[C@@H](CC(N)=O)C(=O)N[C@@H](CCCCN)C(=O)NC(C)(C)C(=O)N[C@H](C(=O)N[C@@H](CCCNC(=N)N)C(=O)N[C@@H](CCC(N)=O)C(=O)N[C@@H](CCCNC(=N)N)C(=O)N[C@@H](CC1CCCCC1)C(N)=O)[C@@H](C)O)
–	–	1.6	1.3	Ac-S[dP][Iva][4Pal][Cha][Nva]NK[Aib]TRQR[Cha]-NH2 (SMILES CCC[C@H](NC(=O)[C@H](CC1CCCCC1)NC(=O)[C@H](Cc1ccncc1)NC(=O)[C@](C)(CC)NC(=O)[C@H]1CCCN1C(=O)[C@H](CO)NC(C)=O)C(=O)N[C@@H](CC(N)=O)C(=O)N[C@@H](CCCCN)C(=O)NC(C)(C)C(=O)N[C@H](C(=O)N[C@@H](CCCNC(=N)N)C(=O)N[C@@H](CCC(N)=O)C(=O)N[C@@H](CCCNC(=N)N)C(=O)N[C@@H](CC1CCCCC1)C(N)=O)[C@@H](C)O) [Ac-[D-Pro24, Iva25, Pya(4)26, Cha27,36, Nva28, Aib31, Lys30]-PYY(23-36)]
–	–	1.7	1.7	Carbamoylmethylcarbamoyl-S[dP][Iva][4Pal][Cha][Aib]NK[Aib]TRQR[Cha]-NH2 [Carbamoylmethylcarbamoyl-[D-Pro24, Iva25, Pya(4)26, Cha27,36, Aib28,31, Lys30]-PYY(23-36)]
–	–	3.2	2.4	{(2-carboxyethyl)carbamoyl}-S[dP][Iva][4Pal][Cha][Aib]NK[Aib]TRQR[Cha]-NH2 (SMILES CC[C@](C)(NC(=O)[C@H]1CCCN1C(=O)[C@H](CO)NC(=O)NCCC(=O)O)C(=O)N[C@@H](Cc1ccncc1)C(=O)N[C@@H](CC1CCCCC1)C(=O)NC(C)(C)C(=O)N[C@@H](CC(N)=O)C(=O)N[C@@H](CCCCN)C(=O)NC(C)(C)C(=O)N[C@H](C(=O)N[C@@H](CCCNC(=N)N)C(=O)N[C@@H](CCC(N)=O)C(=O)N[C@@H](CCCNC(=N)N)C(=O)N[C@@H](CC1CCCCC1)C(N)=O)[C@@H](C)O) [(2-Carboxyethyl)carbamoyl-[D-Pro24, Iva25, Pya(4)26, Cha27,36, Aib28,31, Lys30]-PYY(23-36)]
–	–	1.2	1.9	Ac-E[dHyp][Iva][4Pal][Cha][tBuAla]NK[Aib]TRQR[Cha]-NH2 (SMILES CC[C@](C)(NC(=O)[C@H]1C[C@H](O)CN1C(=O)[C@H](CCC(=O)O)NC(C)=O)C(=O)N[C@@H](Cc1ccncc1)C(=O)N[C@@H](CC1CCCCC1)C(=O)N[C@@H](CC(C)(C)C)C(=O)N[C@@H](CC(N)=O)C(=O)N[C@@H](CCCCN)C(=O)NC(C)(C)C(=O)N[C@H](C(=O)N[C@@H](CCCNC(=N)N)C(=O)N[C@@H](CCC(N)=O)C(=O)N[C@@H](CCCNC(=N)N)C(=O)N[C@@H](CC1CCCCC1)C(N)=O)[C@@H](C)O) [Ac-[Glu23, D-Hyp24, Iva25, Pya(4)26, Cha27,36, Leu(Me)28, Lys30, Aib31]-PYY(23-36)]
–	–	1.76	2	X8-S[dP][Iva][4Pal][Cha][Aib]NK[Aib]TRQR[Cha]-NH2 (SMILES CC[C@](C)(NC(=O)[C@H]1CCCN1C(=O)[C@H](CO)NC(=O)NC(CO)CO)C(=O)N[C@@H](Cc1ccncc1)C(=O)N[C@@H](CC1CCCCC1)C(=O)NC(C)(C)C(=O)N[C@@H](CC(N)=O)C(=O)N[C@@H](CCCCN)C(=O)NC(C)(C)C(=O)N[C@H](C(=O)N[C@@H](CCCNC(=N)N)C(=O)N[C@@H](CCC(N)=O)C(=O)N[C@@H](CCCNC(=N)N)C(=O)N[C@@H](CC1CCCCC1)C(N)=O)[C@@H](C)O)
–	–	3.3	1.9	Tetrahydropyran4carbonyl-S[dP][Iva][4Pal][Cha][Aib]NK[Aib]TRQR[Cha]-NH2 (SMILES CC[C@](C)(NC(=O)[C@H]1CCCN1C(=O)[C@H](CO)NC(=O)C1CCOCC1)C(=O)N[C@@H](Cc1ccncc1)C(=O)N[C@@H](CC1CCCCC1)C(=O)NC(C)(C)C(=O)N[C@@H](CC(N)=O)C(=O)N[C@@H](CCCCN)C(=O)NC(C)(C)C(=O)N[C@H](C(=O)N[C@@H](CCCNC(=N)N)C(=O)N[C@@H](CCC(N)=O)C(=O)N[C@@H](CCCNC(=N)N)C(=O)N[C@@H](CC1CCCCC1)C(N)=O)[C@@H](C)O) [(Tetrahydro-2H-pyran-4-yl)carbonyl-[D-Pro24, Iva25, Pya(4)26, Cha27,36, Aib28,31, Lys30]-PYY(23-36)]
1.8	1	–	–	Carbamoyl-S[dP]RH[Cha][Cha]NL[Aib]TRQR[Cha]-NH2 (SMILES CC(C)C[C@H](NC(=O)[C@H](CC(N)=O)NC(=O)[C@H](CC1CCCCC1)NC(=O)[C@H](CC1CCCCC1)NC(=O)[C@H](Cc1c[nH]cn1)NC(=O)[C@H](CCCNC(=N)N)NC(=O)[C@H]1CCCN1C(=O)[C@H](CO)NC(N)=O)C(=O)NC(C)(C)C(=O)N[C@H](C(=O)N[C@@H](CCCNC(=N)N)C(=O)N[C@@H](CCC(N)=O)C(=O)N[C@@H](CCCNC(=N)N)C(=O)N[C@@H](CC1CCCCC1)C(N)=O)[C@@H](C)O, also called compound No. 130; Ureido-[D-Pro24,Cha27,28,36,Aib31]-PYY(23-36)) [Carbamoyl-[D-Pro24, Cha27,28,36, Aib31]-PYY(23-36)]
1.3	1.2	–	–	{2‑hydroxyethylcarbamoyl}-E[dP]RH[Cha][Cha]NK[Aib]TRQR[Cha]-NH2 (SMILES C[C@@H](O)[C@H](NC(=O)C(C)(C)NC(=O)[C@H](CCCCN)NC(=O)[C@H](CC(N)=O)NC(=O)[C@H](CC1CCCCC1)NC(=O)[C@H](CC1CCCCC1)NC(=O)[C@H](Cc1c[nH]cn1)NC(=O)[C@H](CCCNC(=N)N)NC(=O)[C@H]1CCCN1C(=O)[C@H](CCC(=O)O)NC(=O)NCCO)C(=O)N[C@@H](CCCNC(=N)N)C(=O)N[C@@H](CCC(N)=O)C(=O)N[C@@H](CCCNC(=N)N)C(=O)N[C@@H](CC1CCCCC1)C(N)=O, also called compound No. 192) [2-Hydroxyethylcarbamoyl-[Glu23, D-Pro24, Cha27,28,36, Lys30, Aib31]-PYY(23-36)]
0.6	0.71	–	–	{2‑hydroxyethylcarbamoyl}-S[dP]RH[Cha][tBuAla]NK[Aib]TRQR[Cha]-NH2 (SMILES C[C@@H](O)[C@H](NC(=O)C(C)(C)NC(=O)[C@H](CCCCN)NC(=O)[C@H](CC(N)=O)NC(=O)[C@H](CC(C)(C)C)NC(=O)[C@H](CC1CCCCC1)NC(=O)[C@H](Cc1c[nH]cn1)NC(=O)[C@H](CCCNC(=N)N)NC(=O)[C@H]1CCCN1C(=O)[C@H](CO)NC(=O)NCCO)C(=O)N[C@@H](CCCNC(=N)N)C(=O)N[C@@H](CCC(N)=O)C(=O)N[C@@H](CCCNC(=N)N)C(=O)N[C@@H](CC1CCCCC1)C(N)=O, also called compound No. 188) [2-Hydroxyethylcarbamoyl-[D-Pro24, Cha27,36, Leu(Me)28, Lys30, Aib31]-PYY(23-36)]
–	–	1.7	1.8	X7-S[dP][Iva][4Pal][Cha][Aib]NK[Aib]TRQR[Cha]-NH2 (SMILES CC[C@](C)(NC(=O)[C@H]1CCCN1C(=O)[C@H](CO)NC(=O)NC1CCOCC1)C(=O)N[C@@H](Cc1ccncc1)C(=O)N[C@@H](CC1CCCCC1)C(=O)NC(C)(C)C(=O)N[C@@H](CC(N)=O)C(=O)N[C@@H](CCCCN)C(=O)NC(C)(C)C(=O)N[C@H](C(=O)N[C@@H](CCCNC(=N)N)C(=O)N[C@@H](CCC(N)=O)C(=O)N[C@@H](CCCNC(=N)N)C(=O)N[C@@H](CC1CCCCC1)C(N)=O)[C@@H](C)O) [(Tetrahydro-2H-pyran-4-yl)carbamoyl-[D-Pro24, Iva25, Pya(4)26, Cha27,36, Aib28,31, Lys30]-PYY(23-36)]
